This test addresses phosphorylated Smad3 (pSmad3) (UniProt Q8BUN5). The test is described as follows: cell-based or functional assay.

Sequence of phosphorylated Smad3 (pSmad3) (Q8BUN5 2-425 limits assumed): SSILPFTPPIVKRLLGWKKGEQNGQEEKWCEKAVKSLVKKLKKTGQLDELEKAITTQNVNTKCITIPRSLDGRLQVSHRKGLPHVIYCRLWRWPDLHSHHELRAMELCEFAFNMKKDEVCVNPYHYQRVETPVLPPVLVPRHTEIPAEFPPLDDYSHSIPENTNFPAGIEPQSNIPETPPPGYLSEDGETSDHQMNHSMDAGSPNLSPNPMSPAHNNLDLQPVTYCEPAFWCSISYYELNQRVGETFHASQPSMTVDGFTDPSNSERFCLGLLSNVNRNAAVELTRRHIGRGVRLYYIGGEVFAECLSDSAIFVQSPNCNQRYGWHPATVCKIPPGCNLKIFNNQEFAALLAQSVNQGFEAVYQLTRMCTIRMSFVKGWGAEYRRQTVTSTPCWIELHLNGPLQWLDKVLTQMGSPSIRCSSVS

The substance “TAT-SH3 (TAT-SNX9(SH3) fusion polypeptide containing the full length SH3 domain, amino acids 1 to 62) (from UniProt Q9Y5X1 1-62) (designed binder)” returned a decrease in Smad3-dependent luciferase activity of 70%.

(Values after patent publication US20170253873A1.)
